# B1: BMP4: human recombinant BMP4 (R&D) used to activate the BMP pathway (protein)
# chain: MIPGNRMLMVVLLCQVLLGGASHASLIPETGKKKVAEIQGHAGGRRSGQSHELLRDFEATLLQMFGLRRRPQPSKSAVIPDYMRDLYRLQSGEEEEEQIHSTGLEYPERPASRANTVRSFHHEEHLENIPGTSENSAFRFLFNLSSIPENEVISSAELRLFREQVDQGPDWERGFHRINIYEVMKPPAEVVPGHLITRLLDTRLVHHNVTRWETFDVSPAVLRWTREKQPNYGLAIEVTHLHQTRTHQGQHVRISRSLPQGSGNWAQLRPLLVTFGHDGRGHALTRRRRAKRSPKHHSQRARKKNKNCRRHSLYVDFSDVGWNDWIVAPPGYQAFYCHGDCPFPLADHLNSTNHAIVQTLVNSVNSSIPKACCVPTELSAISMLYLDEYDKVVLKNYQEMVVEGCGCR
# System: human CD34+ cells
# Experiment: FACS analysis of erythroid markers CD71 and CD235a on differentiating CD34+ cells
# Assay type: cell-based
# Settings: 25 ng/ml hrBMP4, treated for two days starting from D3 of differentiation
# Description: To establish the role of BMP signaling in erythroid differentiation, differentiating CD34^+ cells were treated with human recombinant BMP4 (hrBMP4) to activate the pathway, or with dorsomorphin, a known inhibitor of BMP signaling. Knowing that erythroid lineage commitment occurs around D3, differentiating cells were treated for two days starting from D3, to test the effects of these signals on erythrocyte commitment. […] Human CD34+ cells, isolated from peripheral blood of granulocyte colony-stimulating factor-mobilized healthy volunteers, were obtained from the Fred Hutchinson Cancer Research Center. The cells were maintained and differentiated as previously described (Sankaran et al., 2008b; Trompouki et al.,2011). Control and treated stage-matched CD34 cells were washed in PBS and stained with propidium iodide (PI), 1:60 APC-conjugated CD235a (eBioscience, clone HIR2, 17-9987-42), 1:60 FITC-conjugated CD71 (eBioscience, OKT9, 11-0719-42), 1:60 PE-conjugated CD41a (eBioscience, HIP8, 12-0419-42) and 1:60 PE-conjugated CD11b (eBioscience, ICRF44, 12-0118-42). BD Bioscience LSR II flow cytometer was used to record raw FACS data, which were analyzed subsequently using FlowJo 8.6.9 10.0.7 (TreeStar). Human CD34^+ cells, isolated from peripheral blood of granulocyte colony-stimulating factor mobilized healthy volunteers, were purchased from the Fred Hutchinson Cancer Research Center. […]
molecule,measurement,value
B1,increase in erythroid cell counts (CD71 and CD235a),1.5-2 fold

# From patent publication US20190002886A1, “SIGNALING CENTERS OF ERYTHROID DIFFERENTIATION” (THE CHILDREN'S MEDICAL CENTER CORPORATION, priority 2017, published 2019)
